First the molecules themselves.
B1: Far upstream element-binding protein 3, residues 75 to 150; numbered along this chain, Q96I24 (parent)
chain: RTVITEEFKVPDKMVGFIIGRGGEQISRIQAESGCKIQIASESSGIPERPCVLTGTPESIEQAKRLLGQIVDRCRN

± gives the uncertainty stated by the source.

The data set covers variants of B1. In words: abundance fitness (aPCA) (normalised: wild type 0, dead -1); higher = more abundant; growth selection in yeast, the domain comes from the species named. Particulars: Homo sapiens.
With RTVITEEFKVPDKMVGFIIGRGGEQISRIQAEDGCKIQIASESSGIPERPCVLTGTPESIEQAKRLLGQIVDRCRN [S33D], the abundance fitness was -0.648 ± 0.06.

As to RTVITEEFKVPDKMVGFIIGRGGEQISRIQAEAGCKIQIASESSGIPERPCVLTGTPESIEQAKRLLGQIVDRCRN [S33A], the abundance fitness is -0.138 ± 0.034.

Consider RTVITEEFKVPDKMVGFIIGRGGEQISRIQAECGCKIQIASESSGIPERPCVLTGTPESIEQAKRLLGQIVDRCRN [S33C], for which the abundance fitness is -0.079 ± 0.039.

In the case of RTVITEEFKVPDKMVGFIIGRGGEQISRIQAEEGCKIQIASESSGIPERPCVLTGTPESIEQAKRLLGQIVDRCRN [S33E], the abundance fitness is -0.641 ± 0.048.

For the variant RTVITEEFKVPDKMVGFIIGRGGEQISRSQAESGCKIQIASESSGIPERPCVLTGTPESIEQAKRLLGQIVDRCRN [I29S], the abundance fitness is -0.595 ± 0.038.

For the variant RTVITEEFKVPDKMVGFIIGRGGEQISRFQAESGCKIQIASESSGIPERPCVLTGTPESIEQAKRLLGQIVDRCRN [I29F], the abundance fitness was -0.278 ± 0.054.

On to RTVITEEFKVPDKMVGFIIGRGGEQISRMQAESGCKIQIASESSGIPERPCVLTGTPESIEQAKRLLGQIVDRCRN [I29M], for which the abundance fitness was -0.105 ± 0.038.

Consider RTVITEEFKVPDKMVGFIIGRGGEQISRVQAESGCKIQIASESSGIPERPCVLTGTPESIEQAKRLLGQIVDRCRN [I29V], for which the abundance fitness is -0.049 ± 0.027.

Consider RTVITEEFKVPDKMVGFIIGRGGEQISRKQAESGCKIQIASESSGIPERPCVLTGTPESIEQAKRLLGQIVDRCRN [I29K], for which the abundance fitness was -0.676 ± 0.058.

With RTVITEEFKVPDKMVGFIIGRGGEQISRTQAESGCKIQIASESSGIPERPCVLTGTPESIEQAKRLLGQIVDRCRN [I29T], the abundance fitness was -0.271 ± 0.042.

As to RTVITEEFKVPDKMVGFIIGRGGEQISRGQAESGCKIQIASESSGIPERPCVLTGTPESIEQAKRLLGQIVDRCRN [I29G], the abundance fitness was -0.677 ± 0.028.

As for RTVITEEFKVPDKMVGFIIGRGGEQISRWQAESGCKIQIASESSGIPERPCVLTGTPESIEQAKRLLGQIVDRCRN [I29W], the abundance fitness is -0.521 ± 0.034.

Consider RTVITEEFKVPDKMVGFIIGRGGEQISRHQAESGCKIQIASESSGIPERPCVLTGTPESIEQAKRLLGQIVDRCRN [I29H], for which the abundance fitness was -0.622 ± 0.083.

As to RTVITEEFKVPDKMVGFIIGRGGEQISRYQAESGCKIQIASESSGIPERPCVLTGTPESIEQAKRLLGQIVDRCRN [I29Y], the abundance fitness was -0.579 ± 0.071.

On to RTVITEEFKVPDKMVGFIIGRGGEQISRPQAESGCKIQIASESSGIPERPCVLTGTPESIEQAKRLLGQIVDRCRN [I29P], for which the abundance fitness was -0.625 ± 0.051.

As for RTVITEEFKVPDKMVGFIIGRGGEQISRLQAESGCKIQIASESSGIPERPCVLTGTPESIEQAKRLLGQIVDRCRN [I29L], the abundance fitness was -0.034 ± 0.031.

RTVITEEFKVPDKMVGFIIGRGGEQISRQQAESGCKIQIASESSGIPERPCVLTGTPESIEQAKRLLGQIVDRCRN [I29Q]: the abundance fitness was -0.599 ± 0.052.

For the variant RTVITEEFKVPDKMVGFIIGRGGEQISRRQAESGCKIQIASESSGIPERPCVLTGTPESIEQAKRLLGQIVDRCRN [I29R], the abundance fitness is -0.856 ± 0.033.

As to RTVITEEFKVPDKMVGFIIGRGGEQISRITAESGCKIQIASESSGIPERPCVLTGTPESIEQAKRLLGQIVDRCRN [Q30T], the abundance fitness is -0.11 ± 0.043.

Consider RTVITEEFKVPDKMVGFIIGRGGEQISRILAESGCKIQIASESSGIPERPCVLTGTPESIEQAKRLLGQIVDRCRN [Q30L], for which the abundance fitness was -0.471 ± 0.036.

For RTVITEEFKVPDKMVGFIIGRGGEQISRIMAESGCKIQIASESSGIPERPCVLTGTPESIEQAKRLLGQIVDRCRN [Q30M], the abundance fitness is -0.097 ± 0.041.

In the case of RTVITEEFKVPDKMVGFIIGRGGEQISRIRAESGCKIQIASESSGIPERPCVLTGTPESIEQAKRLLGQIVDRCRN [Q30R], the abundance fitness is -0.05 ± 0.026.

In the case of RTVITEEFKVPDKMVGFIIGRGGEQISRIDAESGCKIQIASESSGIPERPCVLTGTPESIEQAKRLLGQIVDRCRN [Q30D], the abundance fitness was -0.582 ± 0.059.

In the case of RTVITEEFKVPDKMVGFIIGRGGEQISRIPAESGCKIQIASESSGIPERPCVLTGTPESIEQAKRLLGQIVDRCRN [Q30P], the abundance fitness was -0.693 ± 0.05.

RTVITEEFKVPDKMVGFIIGRGGEQISRIKAESGCKIQIASESSGIPERPCVLTGTPESIEQAKRLLGQIVDRCRN [Q30K]: the abundance fitness is -0.171 ± 0.047.

Regarding RTVITEEFKVPDKMVGFIIGRGGEQISRIYAESGCKIQIASESSGIPERPCVLTGTPESIEQAKRLLGQIVDRCRN [Q30Y], the abundance fitness was -0.31 ± 0.067.

Regarding RTVITEEFKVPDKMVGFIIGRGGEQISRIEAESGCKIQIASESSGIPERPCVLTGTPESIEQAKRLLGQIVDRCRN [Q30E], the abundance fitness turned out to be 0.029 ± 0.033.

As to RTVITEEFKVPDKMVGFIIGRGGEQISRINAESGCKIQIASESSGIPERPCVLTGTPESIEQAKRLLGQIVDRCRN [Q30N], the abundance fitness was -0.369 ± 0.066.

Consider RTVITEEFKVPDKMVGFIIGRGGEQISRIWAESGCKIQIASESSGIPERPCVLTGTPESIEQAKRLLGQIVDRCRN [Q30W], for which the abundance fitness was -0.487 ± 0.038.

Turning to RTVITEEFKVPDKMVGFIIGRGGEQISRISAESGCKIQIASESSGIPERPCVLTGTPESIEQAKRLLGQIVDRCRN [Q30S], the abundance fitness was -0.051 ± 0.037.

With RTVITEEFKVPDKMVGFIIGRGGEQISRIHAESGCKIQIASESSGIPERPCVLTGTPESIEQAKRLLGQIVDRCRN [Q30H], the abundance fitness is -0.279 ± 0.075.

Turning to RTVITEEFKVPDKMVGFIIGRGGEQISRIVAESGCKIQIASESSGIPERPCVLTGTPESIEQAKRLLGQIVDRCRN [Q30V], the abundance fitness was -0.142 ± 0.031.

RTVITEEFKVPDKMVGFIIGRGGEQISRIIAESGCKIQIASESSGIPERPCVLTGTPESIEQAKRLLGQIVDRCRN [Q30I]: the abundance fitness is -0.131 ± 0.059.

On to RTVITEEFKVPDKMVGFIIGRGGEQISRIAAESGCKIQIASESSGIPERPCVLTGTPESIEQAKRLLGQIVDRCRN [Q30A], for which the abundance fitness was -0.058 ± 0.031.

RTVITEEFKVPDKMVGFIIGRGGEQISRIGAESGCKIQIASESSGIPERPCVLTGTPESIEQAKRLLGQIVDRCRN [Q30G]: the abundance fitness was -0.171 ± 0.025.

For the variant RTVITEEFKVPDKMVGFIIGRGGEQISRIFAESGCKIQIASESSGIPERPCVLTGTPESIEQAKRLLGQIVDRCRN [Q30F], the abundance fitness was -0.464 ± 0.084.
